Assay results from publication PMC5037430, “High throughput cell-based assay for identification of glycolate oxidase inhibitors as a potential treatment for Primary Hyperoxaluria Type 1” (Scientific Reports, 2016).

Substrate: O=C(O)CO
Assay: purified protein
Conditions: FMN

B1: glycolate oxidase (GO); hydroxyacid oxidase 1 (HAO1) (Homo sapiens) (protein)
chain: MLPRLICINDYEQHAKSVLPKSIYDYYRSGANDEETLADNIAAFSRWKLYPRMLRNVAETDLSTSVLGQRVSMPICVGATAMQRMAHVDGELATVRACQSLGTGMMLSSWATSSIEEVAEAGPEALRWLQLYIYKDREVTKKLVRQAEKMGYKAIFVTVDTPYLGNRLDDVRNRFKLPPQLRMKNFETSTLSFSPEENFGDDSGLAAYVAKAIDPSISWEDIKWLRRLTSLPIVAKGILRGDDAREAVKHGLNGILVSNHGARQLDGVPATIDVLPEIVEAVEGKVEVFLDGGVRKGTDVLKALALGAKAVFVGRPIVWGLAFQGEKGVQDVLEILKEEFRLAMALSGCQNVKVIDKTLVRKNPLAVSKI
- Km: 74.5 µM
